From patent US20140037648A1

Experiments:
[1] = target: stabilized form of the full-length pre-fusion RSV F protein (RSV); experiment: surface plasmon resonance
[2] = target: F protein of RSV A/9835/09 (RSV (A/9835/09)); experiment: cell-based or functional assay
[3] = target: F protein of RSV A/9846/09 (RSV (A/9846/09)); experiment: cell-based or functional assay
[4] = target: F protein of RSV 9727/2009 (B, Pavia IT, 2009; B/9727/09) (RSV (9727/2009)); experiment: cell-based or functional assay
[5] = target: F protein of MPV I-PV-03/01-6621 (A1, Pavia IT, 2001; A1/6621/01) (MPV (I-PV-03/01-6621)); experiment: cell-based or functional assay
[6] = target: F protein of RSV 9847/2009 (B, Pavia IT, 2009; B/9847/09) (RSV (9847/2009)); experiment: cell-based or functional assay
[7] = target: F protein of RSV Randall (A, Chicago US, 1958; A/Randall/58) (RSV (strain Randall)); experiment: cell-based or functional assay
[8] = target: F protein of RSV 9736/2009 (B, Pavia IT, 2009; B/9736/09) (RSV (9736/2009)); experiment: cell-based or functional assay

Question: What does the source list for Palivizumab (antibody)?
Answer: Kd [1]: 2 nM; Neutralization IC50 [2]: 0.284 µg/mL; Neutralization IC50 [3]: 0.283 µg/mL; Neutralization IC50 [4]: 0.275 µg/mL; IC50 (ng/ml), microneutralization [5]: > 20000 ng/mL; Neutralization IC50 [6]: 0.209 µg/mL; Neutralization IC50 [7]: 0.44 µg/mL; Neutralization IC50 [8]: 0.092 µg/mL
